Data taken from FireProtDB (doi:10.1006/jmbi.1998.1906).

B1: Lysozyme C, P61626 (parent)
chain: MKALIVLGLVLLSVTVQGKVFERCELARTLKRLGMDGYRGISLANWMCLAKWESGYNTRATNYNAGDRSTDYGIFQINSRYWCNDGKTPGAVNACHLSCSALLQDNIADAVACAKRVVRDPQGIRAWVAWRNRCQNRDVRQYVQGCGV

Variants of: B1
Settings: Homo sapiens; pH 2.66; Thermal; DSC; glycine 0.05 M; reversible: yes; structure 1LZ1; whole UniProt chain shown

Q: Which results are given for MKALIVLGLVLLSVTVQGKVFERCELARTLKRLGMDGYRGVSLANWMCLAKWESGYNTRATNYNAGDRSTDYGIFQINSRYWCNDGKTPGAVNACHLSCSALLQDNIADAVACAKRVVRDPQGIRAWVAWRNRCQNRDVRQYVQGCGV [I41V]?
A: Tm: 46.7 °C; unfolding enthalpy (calorimetric): 76.3 kcal/mol; unfolding enthalpy (van 't Hoff): 80.4 kcal/mol

Same assay, conditions: Homo sapiens; pH 2.7; 49.2 °C; Thermal; DSC; glycine 0.05 M; reversible: yes; structure 1LZ1; whole UniProt chain shown

Q: Which “ddG of mutation (higher = less stable)” value does the source give for MKALIVLGLVLLSVTVQGKVFERCELARTLKRLGMDGYRGVSLANWMCLAKWESGYNTRATNYNAGDRSTDYGIFQINSRYWCNDGKTPGAVNACHLSCSALLQDNIADAVACAKRVVRDPQGIRAWVAWRNRCQNRDVRQYVQGCGV [I41V] here?
A: 0.41 kcal/mol

Q: And the “heat capacity change of unfolding” value?
A: 1.82 kcal/mol/K

Q: For MKALIVLGLVLLSVTVQGKVFERCELARTLKRLGMDGYRGISLANWMCLAKWESGYNTRATNYNAGDRSTDYGIFQVNSRYWCNDGKTPGAVNACHLSCSALLQDNIADAVACAKRVVRDPQGIRAWVAWRNRCQNRDVRQYVQGCGV [I77V], which “ddG of mutation (higher = less stable)” value is on record?
A: 0.93 kcal/mol

Q: And the “heat capacity change of unfolding” value?
A: 1.67 kcal/mol/K

Q: For MKALIVLGLVLLSVTVQGKVFERCELARTLKRLGMDGYRGISLANWMCLAKWESGYNTRATNYNAGDRSTDYGIFQINSRYWCNDGKTPGAVNACHLSCSALLQDNIADAVACAKRVVRDPQGIRAWAAWRNRCQNRDVRQYVQGCGV [V128A], which “ddG of mutation (higher = less stable)” value is on record?
A: -0.07 kcal/mol

Q: And the “heat capacity change of unfolding” value?
A: 1.51 kcal/mol/K

Same assay, conditions: Homo sapiens; pH 2.7; Thermal; DSC; glycine 0.05 M; reversible: yes; structure 1LZ1; whole UniProt chain shown

Q: Which Tm does the source give for MKALIVLGLVLLSVTVQGKVFERCELARTLKRLGMDGYRGVSLANWMCLAKWESGYNTRATNYNAGDRSTDYGIFQINSRYWCNDGKTPGAVNACHLSCSALLQDNIADAVACAKRVVRDPQGIRAWVAWRNRCQNRDVRQYVQGCGV [I41V] here?
A: 47.6 °C

Q: And the “change of melting temperature, mutant - wild type (higher = more stable)” value (shortened to “change of melting temperature, mutant”)?
A: -1.6 °C

Q: And the “heat capacity change of unfolding” value?
A: 1.82 kcal/mol/K

Q: What about the “unfolding enthalpy (calorimetric)” value of the same variant?
A: 80.9 kcal/mol

Q: Which Tm does the source give for MKALIVLGLVLLSVTVQGKVFERCELARTLKRLGMDGYRGISLANWMCLAKWESGYNTRATNYNAGDRSTDYGIFQVNSRYWCNDGKTPGAVNACHLSCSALLQDNIADAVACAKRVVRDPQGIRAWVAWRNRCQNRDVRQYVQGCGV [I77V] here?
A: 44.8 °C

Q: What about the “change of melting temperature, mutant” value of the same variant?
A: -4.4 °C

Q: And the “heat capacity change of unfolding” value?
A: 1.67 kcal/mol/K

Q: And the “unfolding enthalpy (calorimetric)” value?
A: 71.3 kcal/mol

Q: Which Tm does the source give for MKALIVLGLVLLSVTVQGKVFERCELARTLKRLGMDGYRGISLANWMCLAKWESGYNTRATNYNAGDRSTDYGIFQINSRYWCNDGKTPGAVNACHLSCSALLQDNIADAVACAKRVVRDPQGIRAWAAWRNRCQNRDVRQYVQGCGV [V128A] here?
A: 49.5 °C

Q: And the “change of melting temperature, mutant” value?
A: 0.3 °C

Q: What about the “heat capacity change of unfolding” value of the same variant?
A: 1.51 kcal/mol/K

Q: What about the “unfolding enthalpy (calorimetric)” value of the same variant?
A: 80.9 kcal/mol

Same assay, conditions: Homo sapiens; pH 2.78; Thermal; DSC; glycine 0.05 M; reversible: yes; structure 1LZ1; whole UniProt chain shown

Q: Which results are given for MKALIVLGLVLLSVTVQGKVFERCELARTLKRLGMDGYRGVSLANWMCLAKWESGYNTRATNYNAGDRSTDYGIFQINSRYWCNDGKTPGAVNACHLSCSALLQDNIADAVACAKRVVRDPQGIRAWVAWRNRCQNRDVRQYVQGCGV [I41V]?
A: Tm: 49.6 °C; unfolding enthalpy (calorimetric): 83.5 kcal/mol; unfolding enthalpy (van 't Hoff): 85.9 kcal/mol

Same assay, conditions: Homo sapiens; pH 2.96; Thermal; DSC; glycine 0.05 M; reversible: yes; structure 1LZ1; whole UniProt chain shown

Q: With MKALIVLGLVLLSVTVQGKVFERCELARTLKRLGMDGYRGVSLANWMCLAKWESGYNTRATNYNAGDRSTDYGIFQINSRYWCNDGKTPGAVNACHLSCSALLQDNIADAVACAKRVVRDPQGIRAWVAWRNRCQNRDVRQYVQGCGV [I41V] as the variant, how does the Tm read?
A: 52.3 °C

Q: And the “unfolding enthalpy (calorimetric)” value?
A: 85.4 kcal/mol

Q: What about the “unfolding enthalpy (van 't Hoff)” value of the same variant?
A: 89.2 kcal/mol

Same assay, conditions: Homo sapiens; pH 3.09; Thermal; DSC; glycine 0.05 M; reversible: yes; structure 1LZ1; whole UniProt chain shown

Q: Which Tm does the source give for MKALIVLGLVLLSVTVQGKVFERCELARTLKRLGMDGYRGVSLANWMCLAKWESGYNTRATNYNAGDRSTDYGIFQINSRYWCNDGKTPGAVNACHLSCSALLQDNIADAVACAKRVVRDPQGIRAWVAWRNRCQNRDVRQYVQGCGV [I41V] here?
A: 55 °C

Q: And the “unfolding enthalpy (calorimetric)” value?
A: 91.1 kcal/mol

Q: And the “unfolding enthalpy (van 't Hoff)” value?
A: 95 kcal/mol

Same assay, conditions: Homo sapiens; pH 2.68; Thermal; DSC; glycine 0.05 M; reversible: yes; structure 1LZ1; whole UniProt chain shown

Q: Which Tm does the source give for MKALIVLGLVLLSVTVQGKVFERCELARTLKRLGMDGYRGISLANWMCLAKWESGYNTRATNYNAGDRSTDYGIFQVNSRYWCNDGKTPGAVNACHLSCSALLQDNIADAVACAKRVVRDPQGIRAWVAWRNRCQNRDVRQYVQGCGV [I77V] here?
A: 44.3 °C

Q: What about the “unfolding enthalpy (calorimetric)” value of the same variant?
A: 62.9 kcal/mol

Q: And the “unfolding enthalpy (van 't Hoff)” value?
A: 67 kcal/mol

Same assay, conditions: Homo sapiens; pH 2.81; Thermal; DSC; glycine 0.05 M; reversible: yes; structure 1LZ1; whole UniProt chain shown

Q: For MKALIVLGLVLLSVTVQGKVFERCELARTLKRLGMDGYRGISLANWMCLAKWESGYNTRATNYNAGDRSTDYGIFQVNSRYWCNDGKTPGAVNACHLSCSALLQDNIADAVACAKRVVRDPQGIRAWVAWRNRCQNRDVRQYVQGCGV [I77V], which Tm is on record?
A: 46.9 °C

Q: And the “change of melting temperature, mutant” value?
A: -5.1 °C

Q: And the “unfolding enthalpy (calorimetric)” value?
A: 67.5 kcal/mol

Q: And the “unfolding enthalpy (van 't Hoff)” value?
A: 71.1 kcal/mol

Same assay, conditions: Homo sapiens; pH 3; Thermal; DSC; glycine 0.05 M; reversible: yes; structure 1LZ1; whole UniProt chain shown

Q: What does the source list for MKALIVLGLVLLSVTVQGKVFERCELARTLKRLGMDGYRGISLANWMCLAKWESGYNTRATNYNAGDRSTDYGIFQVNSRYWCNDGKTPGAVNACHLSCSALLQDNIADAVACAKRVVRDPQGIRAWVAWRNRCQNRDVRQYVQGCGV [I77V]?
A: Tm: 50.3 °C; unfolding enthalpy (calorimetric): 74.2 kcal/mol; unfolding enthalpy (van 't Hoff): 76.1 kcal/mol

Q: Which Tm does the source give for MKALIVLGLVLLSVTVQGKVFERCELARTLKRLGMDGYRGISLANWMCLAKWESGYNTRATNYNAGDRSTDYGIFQINSRYWCNDGKTPGAVNACHLSCSALLQDNIADAVACAKRVVRDPQGIRAWAAWRNRCQNRDVRQYVQGCGV [V128A] here?
A: 55 °C

Q: And the “unfolding enthalpy (calorimetric)” value?
A: 89 kcal/mol

Q: What about the “unfolding enthalpy (van 't Hoff)” value of the same variant?
A: 93.1 kcal/mol

Same assay, conditions: Homo sapiens; pH 3.1; Thermal; DSC; glycine 0.05 M; reversible: yes; structure 1LZ1; whole UniProt chain shown

Q: For MKALIVLGLVLLSVTVQGKVFERCELARTLKRLGMDGYRGISLANWMCLAKWESGYNTRATNYNAGDRSTDYGIFQVNSRYWCNDGKTPGAVNACHLSCSALLQDNIADAVACAKRVVRDPQGIRAWVAWRNRCQNRDVRQYVQGCGV [I77V], which Tm is on record?
A: 52 °C

Q: What about the “unfolding enthalpy (calorimetric)” value of the same variant?
A: 75.4 kcal/mol

Q: And the “unfolding enthalpy (van 't Hoff)” value?
A: 78.7 kcal/mol

Same assay, conditions: Homo sapiens; pH 2.55; Thermal; DSC; glycine 0.05 M; reversible: yes; structure 1LZ1; whole UniProt chain shown

Q: Which results are given for MKALIVLGLVLLSVTVQGKVFERCELARTLKRLGMDGYRGISLANWMCLAKWESGYNTRATNYNAGDRSTDYGIFQINSRYWCNDGKTPGAVNACHLSCSALLQDNIADAVACAKRVVRDPQGIRAWAAWRNRCQNRDVRQYVQGCGV [V128A]?
A: Tm: 46.8 °C; unfolding enthalpy (calorimetric): 76.8 kcal/mol; unfolding enthalpy (van 't Hoff): 78 kcal/mol

Same assay, conditions: Homo sapiens; pH 2.87; Thermal; DSC; glycine 0.05 M; reversible: yes; structure 1LZ1; whole UniProt chain shown

Q: Which Tm does the source give for MKALIVLGLVLLSVTVQGKVFERCELARTLKRLGMDGYRGISLANWMCLAKWESGYNTRATNYNAGDRSTDYGIFQINSRYWCNDGKTPGAVNACHLSCSALLQDNIADAVACAKRVVRDPQGIRAWAAWRNRCQNRDVRQYVQGCGV [V128A] here?
A: 52.5 °C

Q: What about the “unfolding enthalpy (calorimetric)” value of the same variant?
A: 85.9 kcal/mol

Q: And the “unfolding enthalpy (van 't Hoff)” value?
A: 87.6 kcal/mol

Same assay, conditions: Homo sapiens; pH 3.13; Thermal; DSC; glycine 0.05 M; reversible: yes; structure 1LZ1; whole UniProt chain shown

Q: Which results are given for MKALIVLGLVLLSVTVQGKVFERCELARTLKRLGMDGYRGISLANWMCLAKWESGYNTRATNYNAGDRSTDYGIFQINSRYWCNDGKTPGAVNACHLSCSALLQDNIADAVACAKRVVRDPQGIRAWAAWRNRCQNRDVRQYVQGCGV [V128A]?
A: Tm: 57.2 °C; unfolding enthalpy (calorimetric): 93.3 kcal/mol; unfolding enthalpy (van 't Hoff): 93.3 kcal/mol
